Experimental data published in the Human Domainome abundance scans (Beltran et al. 2025).
± gives the uncertainty stated by the source.

B1: Ankyrin-2, residues 3571 to 3650; numbered along this chain, Q01484 (parent)
chain: ERLAYIADHLGFSWTELARELDFTEEQIHQIRIENPNSLQDQSHALLKYWLERDGKHATDTNLVECLTKINRMDIVHLME

Variants of: B1
Assay: abundance fitness (aPCA) (normalised: wild type 0, dead -1); higher = more abundant; growth selection in yeast, the domain comes from the species named
Settings: Homo sapiens
With W14K the abundance fitness was -1 ± 0.41.
W14Y showed an abundance fitness of -0.31 ± 0.32.
W14H gave an abundance fitness of -0.842 ± 0.43.
Work on W14P yielded an abundance fitness of -0.958 ± 0.19.
In the case of W14N, the abundance fitness is reported as -0.348 ± 0.23.
E20S gave an abundance fitness of -0.076 ± 0.097.
For E20V, the abundance fitness was -0.003 ± 0.066.
For E20Y, the abundance fitness was -0.1 ± 0.14.
E20D gave an abundance fitness of 0.018 ± 0.24.
With E20P the abundance fitness was -0.814 ± 0.093.
Variant E20F has an abundance fitness of -0.098 ± 0.22.
In the case of E20G, the abundance fitness is reported as -0.095 ± 0.07.
For E20M, the abundance fitness was 0.089 ± 0.086.
In the case of E20L, the abundance fitness is reported as -0.083 ± 0.059.
E20T gave an abundance fitness of -0.025 ± 0.072.
With E20C the abundance fitness was -0.156 ± 0.25.
With E20W the abundance fitness was -0.156 ± 0.093.
E20Q gave an abundance fitness of -0.169 ± 0.15.
E20R showed an abundance fitness of -0.057 ± 0.056.
With E20A the abundance fitness was -0.118 ± 0.11.
L17T gave an abundance fitness of -0.235 ± 0.086.
With L17F the abundance fitness was 0.08 ± 0.12.
With L17C the abundance fitness was -0.035 ± 0.089.
L17N showed an abundance fitness of -1.15 ± 0.42.
With L17V the abundance fitness was -0.096 ± 0.078.
L17H gave an abundance fitness of -0.91 ± 0.38.
L17G gave an abundance fitness of -1.04 ± 0.094.
In the case of L17M, the abundance fitness is reported as -0.119 ± 0.11.
For L17E, the abundance fitness was -1.05 ± 0.43.
L17R showed an abundance fitness of -1.23 ± 0.12.
L17I showed an abundance fitness of -0.024 ± 0.18.
In the case of L17S, the abundance fitness is reported as -1.03 ± 0.12.
Work on L17Y yielded an abundance fitness of -0.478 ± 0.16.
Work on L17W yielded an abundance fitness of -0.692 ± 0.11.
Variant L17A has an abundance fitness of -0.134 ± 0.076.
In the case of L17P, the abundance fitness is reported as -1.17 ± 0.2.
In the case of D22Q, the abundance fitness is reported as 0.017 ± 0.095.
Work on D22M yielded an abundance fitness of -0.075 ± 0.05.
For D22N, the abundance fitness was -0.111 ± 0.14.
Variant D22H has an abundance fitness of -0.017 ± 0.25.
In the case of D22K, the abundance fitness is reported as -0.051 ± 0.12.
Work on D22S yielded an abundance fitness of 0.012 ± 0.061.
For D22F, the abundance fitness was -0.039 ± 0.097.
D22G gave an abundance fitness of -0.075 ± 0.06.
For D22C, the abundance fitness was -0.167 ± 0.2.
D22E gave an abundance fitness of -0.217 ± 0.14.
Work on D22Y yielded an abundance fitness of -0.158 ± 0.16.
Variant D22V has an abundance fitness of -0.206 ± 0.066.
Work on D22W yielded an abundance fitness of -0.223 ± 0.067.
In the case of D22A, the abundance fitness is reported as -0.05 ± 0.066.
D22I showed an abundance fitness of -0.14 ± 0.35.
For D22T, the abundance fitness was -0.048 ± 0.12.
For A7Q, the abundance fitness was -0.089 ± 0.35.
A7P showed an abundance fitness of -0.36 ± 0.18.
A7W gave an abundance fitness of -0.053 ± 0.24.
Work on A7M yielded an abundance fitness of -0.045 ± 0.25.
Work on A7L yielded an abundance fitness of -0.008 ± 0.11.
For A7K, the abundance fitness was -0.041 ± 0.25.
In the case of A7T, the abundance fitness is reported as 0.029 ± 0.15.
Variant A7S has an abundance fitness of 0.052 ± 0.33.
In the case of A7E, the abundance fitness is reported as -0.265 ± 0.21.
A7R gave an abundance fitness of 0.087 ± 0.48.
In the case of A7G, the abundance fitness is reported as 0.12 ± 0.28.
In the case of A4M, the abundance fitness is reported as 0.004 ± 0.078.
A4G gave an abundance fitness of 0.052 ± 0.035.
A4Y showed an abundance fitness of -0.075 ± 0.1.
With A4F the abundance fitness was 0.129 ± 0.068.
With A4E the abundance fitness was -0.017 ± 0.054.
A4D gave an abundance fitness of 0.039 ± 0.084.
Variant A4R has an abundance fitness of -0.007 ± 0.043.
In the case of A4L, the abundance fitness is reported as -0.058 ± 0.04.
For A4N, the abundance fitness was -0.024 ± 0.11.
A4H gave an abundance fitness of 0.016 ± 0.067.
In the case of A4P, the abundance fitness is reported as -0.071 ± 0.029.
With A4W the abundance fitness was -0.11 ± 0.061.
A4T gave an abundance fitness of 0.109 ± 0.048.
With A4K the abundance fitness was -0.029 ± 0.08.
Work on F23L yielded an abundance fitness of -0.066 ± 0.076.
F23S showed an abundance fitness of -0.575 ± 0.075.
Work on F23I yielded an abundance fitness of 0.047 ± 0.18.
Variant F23E has an abundance fitness of -1.17 ± 0.31.
F23W showed an abundance fitness of -0.442 ± 0.085.
For F23H, the abundance fitness was -0.663 ± 0.078.
F23M showed an abundance fitness of -0.021 ± 0.15.
F23P showed an abundance fitness of -1.07 ± 0.22.
With F23T the abundance fitness was -0.211 ± 0.12.
F23G gave an abundance fitness of -1.17 ± 0.19.
In the case of F23Q, the abundance fitness is reported as -0.912 ± 0.18.
F23A showed an abundance fitness of -0.177 ± 0.092.
Variant F23C has an abundance fitness of -0.184 ± 0.11.
In the case of F23R, the abundance fitness is reported as -1.05 ± 0.17.
Variant F23V has an abundance fitness of -0.174 ± 0.078.
In the case of F23K, the abundance fitness is reported as -0.983 ± 0.41.
S13V showed an abundance fitness of -0.214 ± 0.099.
S13F gave an abundance fitness of -0.036 ± 0.1.
Work on S13G yielded an abundance fitness of -0.035 ± 0.074.
S13Y gave an abundance fitness of -0.228 ± 0.2.
With S13R the abundance fitness was -0.077 ± 0.084.
For S13K, the abundance fitness was -0.224 ± 0.14.
Work on S13P yielded an abundance fitness of -0.291 ± 0.11.
Work on S13Q yielded an abundance fitness of 0.059 ± 0.17.
S13C showed an abundance fitness of -0.25 ± 0.19.
For S13M, the abundance fitness was -0.129 ± 0.18.
Variant S13L has an abundance fitness of -0.306 ± 0.11.
S13W gave an abundance fitness of -0.17 ± 0.094.
Work on S13A yielded an abundance fitness of -0.097 ± 0.081.
For A18V, the abundance fitness was -0.687 ± 0.12.
A18W showed an abundance fitness of -0.859 ± 0.34.
With A18F the abundance fitness was -1.07 ± 0.42.
Work on A18D yielded an abundance fitness of -0.514 ± 0.38.
Variant A18P has an abundance fitness of -1.17 ± 0.22.
Variant A18S has an abundance fitness of -0.196 ± 0.089.
A18G showed an abundance fitness of -0.128 ± 0.1.
Variant A18R has an abundance fitness of -1.37 ± 0.3.
For A18T, the abundance fitness was -0.903 ± 0.35.
Variant A18L has an abundance fitness of -1.03 ± 0.16.
A18M gave an abundance fitness of -0.519 ± 0.19.
For I6P, the abundance fitness was -0.412 ± 0.16.
In the case of I6N, the abundance fitness is reported as -0.6 ± 0.24.
Work on I6S yielded an abundance fitness of -0.642 ± 0.23.
In the case of I6K, the abundance fitness is reported as -0.807 ± 0.45.
For I6R, the abundance fitness was -0.717 ± 0.26.
For I6V, the abundance fitness was -0.126 ± 0.46.
For I6W, the abundance fitness was -0.485 ± 0.22.
In the case of E25C, the abundance fitness is reported as -0.22 ± 0.14.
Work on E25G yielded an abundance fitness of -0.074 ± 0.056.
For E25H, the abundance fitness was -0.072 ± 0.14.
Variant E25A has an abundance fitness of -0.006 ± 0.054.
Variant E25F has an abundance fitness of -0.199 ± 0.12.
Variant E25D has an abundance fitness of 0.016 ± 0.15.
With E25I the abundance fitness was 0.009 ± 0.22.
Variant R19M has an abundance fitness of 0.083 ± 0.19.
With R19L the abundance fitness was -0.025 ± 0.057.
R19A showed an abundance fitness of -0.076 ± 0.091.
R19W showed an abundance fitness of 0.001 ± 0.075.
In the case of R19E, the abundance fitness is reported as 0.101 ± 0.17.
Work on R19D yielded an abundance fitness of -0.006 ± 0.18.
With R19N the abundance fitness was 0.015 ± 0.16.
In the case of R19F, the abundance fitness is reported as -0.195 ± 0.15.
R19Y gave an abundance fitness of -0.396 ± 0.44.
R19G showed an abundance fitness of -0.004 ± 0.057.
With R19K the abundance fitness was 0.077 ± 0.11.
R19C gave an abundance fitness of -0.089 ± 0.12.
Work on R19P yielded an abundance fitness of -0.208 ± 0.059.
R19H gave an abundance fitness of 0.028 ± 0.13.
R19Q showed an abundance fitness of 0.046 ± 0.075.
Variant R19I has an abundance fitness of 0.049 ± 0.2.
Work on R19S yielded an abundance fitness of -0.101 ± 0.055.
F12V gave an abundance fitness of -0.045 ± 0.076.
For F12I, the abundance fitness was 0.019 ± 0.17.
F12H showed an abundance fitness of -0.128 ± 0.2.
F12Q showed an abundance fitness of -0.132 ± 0.25.
With F12S the abundance fitness was 0.063 ± 0.096.
F12Y showed an abundance fitness of -0.195 ± 0.25.
Work on F12M yielded an abundance fitness of 0.028 ± 0.16.
Variant F12P has an abundance fitness of -0.168 ± 0.13.
In the case of F12T, the abundance fitness is reported as -0.031 ± 0.08.
Variant F12E has an abundance fitness of -0.191 ± 0.15.
Variant F12D has an abundance fitness of -0.312 ± 0.24.
In the case of F12L, the abundance fitness is reported as -0.068 ± 0.072.
For F12A, the abundance fitness was 0.038 ± 0.079.
Work on F12R yielded an abundance fitness of -0.041 ± 0.063.
Work on F12W yielded an abundance fitness of 0.005 ± 0.092.
F12G showed an abundance fitness of 0.005 ± 0.068.
For F12C, the abundance fitness was -0.04 ± 0.13.
Variant F12N has an abundance fitness of -0.158 ± 0.2.
In the case of F12K, the abundance fitness is reported as -0.143 ± 0.14.
